Primed or numbered codes have the meaning given here. No end group written: not given here. *: point of attachment. TMR‑6COOH = tetramethylrhodamine, CN(C)c1ccc2c(-c3cc(C(=O)*)ccc3C(=O)[O-])c3ccc(N(C)C)cc3[o+]c2c1; Biotin = O=C1N[C@H]2[C@H](CS[C@H]2CCCCC(=O)*)N1; PEG2′ = Fmoc-PEG2-OH spacer; PEG4′ = not defined here
B1: cpHaloΔ2 (His10-tagged) (domain or fragment)
chain: DVGRKLIIDQNVFIEGTLPMGVVRPLTEEEMDHYREPFLNPKDREPLWRFPNELPIAGEPANIVALVEEYMDWLHQSPVPKLLFWGTPGVLIPPAEAARLAKSLPNCKAVDIGPGLNLLQEDNPDLIGSEIARWLSTLEIKSKYDRDQILKIIAELEKKTGGSIGTGFPFDPHYVEVLGSRMHYVDVGPRDGTPVLFLHGNPTSSYVWRNIIPHVAPTHRCIAPDLIGMGKSDKPDLGYFFDDHVRFMDAFIEALGLEEVVLVIHDWGSALGFHWAKRHPERVKGIAFMEFIRPIPTWDEW
B2: TMR-labeled cpHaloΔ3 (domain or fragment)
chain: EKKGDVGRKLIIDQNVFIEGTLPMGVVRPLTEEEMDHYREPFLNPKDREPLWRFPNELPIAGEPANIVALVEEYMDWLHQSPVPKLLFWGTPGVLIPPAEAARLAKSLPNCKAVDIGPGLNLLQEDNPDLIGSEIARWLSTLEIKSKYDRDQILKIIAELEKKTGGSIGTGFPFDPHYVEVLGSRMHYVDVGPRDGTPVLFLHGNPTSSYVWRNIIPHVAPTHRCIAPDLIGMGKSDKPDLGYFFDDHVRFMDAFIEALGLEEVVLVIHDWGSALGFHWAKRHPERVKGIAFMEFIRPIPTWDEWGDVE
modifications: labeled with the HaloTag ligand CA-TMR (chloroalkane derivative of tetramethylrhodamine)
B3: SiR-labeled cpHaloΔ3 (domain or fragment)
chain: B2 chain
modifications: labeled with the HaloTag ligand CA-SiR (chloroalkane derivative of silicon rhodamine)

Columns and labels:
[1] = target: T1, TMR-Hpep9 conjugate; assay: fluorescence polarisation
T1 peptide: {TMR‑6COOH-PEG2′}-RGWSWREMFRLFRT

[2] = target: T2, TMR-Hpep11 conjugate; assay: fluorescence polarisation
T2 peptide: {TMR‑6COOH-PEG2′}-SKRDWREMFRLFRT

[3] = target: T3, biotin-Hpep9 conjugate; assay: BLI
T3 chain: {Biotin-PEG4′}-RGWSWREMFRLFRT

[4] = target: T4, biotin-Hpep11 conjugate; assay: BLI
T4 chain: {Biotin-PEG4′}-SKRDWREMFRLFRT

Binder	Kd [1]	Kd [2]	Kd [3]	koff [3]	kon [3]	Kd [4]	koff [4]	kon [4]
B1	26.3 nM	38.3 nM						
B2			4.86 nM	0.00104 s⁻¹	214000 M⁻¹ s⁻¹	10.6 nM	0.000687 s⁻¹	64900 M⁻¹ s⁻¹
B3	3.26 nM	1.34 nM	18.8 nM	0.00149 s⁻¹	78900 M⁻¹ s⁻¹			50000 M⁻¹ s⁻¹

Source: publication PMC13022382 (Nature Communications, 2026)
